Results: PMC8621594, “Physicochemical and Biological Characterization of rhC1INH Expressed in CHO Cells” (Pharmaceuticals, 2021)
Each block holds one binder with its values, some of them ahead of it.

Key:
human C1s = human C1s (human); assay: cell-based or functional assay
[1] = target: T1, blood coagulation factor XIIa (human, UniProt P00748 20-615); assay: cell-based or functional assay
T1 sequence (looked up): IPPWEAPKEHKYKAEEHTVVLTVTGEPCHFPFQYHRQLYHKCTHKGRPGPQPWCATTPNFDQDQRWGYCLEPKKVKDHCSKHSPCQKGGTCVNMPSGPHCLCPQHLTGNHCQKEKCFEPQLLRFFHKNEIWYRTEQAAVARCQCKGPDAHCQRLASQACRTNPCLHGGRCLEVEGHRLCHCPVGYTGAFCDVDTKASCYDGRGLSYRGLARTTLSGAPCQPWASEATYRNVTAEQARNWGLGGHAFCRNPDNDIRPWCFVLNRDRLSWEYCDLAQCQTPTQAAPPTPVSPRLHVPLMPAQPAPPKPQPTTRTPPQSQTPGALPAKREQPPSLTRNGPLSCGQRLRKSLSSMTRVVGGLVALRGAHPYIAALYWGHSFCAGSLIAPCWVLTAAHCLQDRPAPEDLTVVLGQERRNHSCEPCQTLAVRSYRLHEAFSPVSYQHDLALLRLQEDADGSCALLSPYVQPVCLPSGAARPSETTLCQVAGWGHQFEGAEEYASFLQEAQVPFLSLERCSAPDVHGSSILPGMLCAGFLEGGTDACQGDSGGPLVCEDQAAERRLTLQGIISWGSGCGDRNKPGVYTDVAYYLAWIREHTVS

[2] = target: T1, blood coagulation factor XIIa; assay: BLI; Octet QKe; each protease diluted to 10 ug/mL in 10 mM sodium acetate pH 6.0 and covalently immobilised on amino reactive sensors (AR2G); C1 inhibitor at 11, 5.5 and 2.8 uM in triplicates; 24 °C, 250 rpm; only the association rate constant calculated because complex formation is irreversible; conditions: both partners purified

IC50 of the inhibition of human serum complement (lysis of chicken erythrocytes), Ruconest® 0.0076 to 15.6 IU/mL; printed as activity against human C1-esterase in the blood serum (human C1s): 1.66 IU/mL
B1: Ruconest^® (conestat alfa), human recombinant C1 inhibitor purified from the milk of transgenic rabbits (natural protein, UniProt P05155 23-500, looked up)
chain: NPNATSSSSQDPESLQDRGEGKVATTVISKMLFVEPILEVSSLPTTNSTTNSATKITANTTDEPTTQPTTEPTTQPTIQPTQPTTQLPTDSPTQPTTGSFCPGPVTLCSDLESHSTEAVLGDALVDFSLKLYHAFSAMKKVETNMAFSPFSIASLLTQVLLGAGENTKTNLESILSYPKDFTCVHQALKGFTTKGVTSVSQIFHSPDLAIRDTFVNASRTLYSSSPRVLSNNSDANLELINTWVAKNTNNKISRLLDSLPSDTRLVLLNAIYLSAKWKTTFDPKKTRMEPFHFKNSVIKVPMMNSKKYPVAHFIDQTLKAKVGQLQLSHNLSLVILVPQNLKHRLEDMEQALSPSVFKAIMEKLEMSKFQPTLLTLPRIKVTTSQDMLSIMEKLEFFDFSYDLNLCGLTEDPDLQVSAMQHQTVLELTETGVEAAAASAISVARTLLVFEVQQPFLFVLWDQQHKFPVFMGRVYDPRA
modifications: glycosylated; 8.0 ± 0.6 mol Neu5Ac/mol protein

inhibitory activity toward factor XIIa, chromogenic substrate S-2302, inhibitor 18 to 0.14 µM, relative to Berinert® (100%) [1]: 115% | kon [2]: 3260 M⁻¹ s⁻¹
B2: recombinant human C1 esterase inhibitor (rhC1INH) from Chinese hamster ovary (CHO) cells (natural protein, UniProt P05155 23-500, looked up)
chain: B1 chain
modifications: heavily glycosylated: six occupied N- and more than 12 O- sites of glycosylation; about 20 mol Neu5Ac/mol protein
notes: mass of the totally deglycosylated protein 52,846 Da (theoretical 52,849 Da); By LC-MS 71% of the deglycosylated product is the full structure; source: genetically engineered CHO cells, purified
